Measured values: patent US20250270318A1 (AB THERAPEUTICS, published 2025)
One block for each binder: values may come before it.

Columns and labels:
[1] = molecular target: T1, TIGIT (on TIGIT-transfected Jurkat cells) (UniProt Q495A1 22-244, limits assumed); assay: competition flow cytometry: blocking of biotinylated CD155 binding to Jurkat TIGIT cells
T1 construct: whole, on cells; also called Jurkat TIGIT; cell-associated TIGIT
T1 sequence (looked up): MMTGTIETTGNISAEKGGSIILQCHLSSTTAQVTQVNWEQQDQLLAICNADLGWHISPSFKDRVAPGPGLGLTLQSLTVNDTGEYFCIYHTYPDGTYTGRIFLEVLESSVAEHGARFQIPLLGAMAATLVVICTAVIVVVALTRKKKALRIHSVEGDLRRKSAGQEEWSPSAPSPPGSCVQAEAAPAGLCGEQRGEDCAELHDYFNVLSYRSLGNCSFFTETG
Method: (§1) 10⁵ cells (RKO for PD-1/PD-L1 blocking, Raji for MHC-II/LAG-3 blocking, and Jurkat TIGIT for CD155/TIGIT blocking) were distributed per well in 0.1 ml medium to 96-well V-bottom plate in duplicate. Supernatants were discarded after spinning down cells at 300 g, 5 min at room temperature. […] After incubation, cells were washed by adding 0.15 ml cell staining buffer (PBS containing 1% FBS and 0.1% NaN3) and centrifugation at 300 g, 5 min at room temperature. Supernatants were discarded and cells were washed one more time with 0.15 ml of staining buffer. Cells were subsequently resuspended in […] of 1:500 Streptavidin-PE and incubated at RT for 30 min. Cells were spun down after 0.15 ml cell staining buffer was added, resuspended in 0.12 ml of cell staining buffer, and analyzed by flow cytometry on a NovoCyte flow cytometer (Agilent).

[2] = molecular target: T1, TIGIT (on TIGIT-transfected Jurkat …); assay: flow cytometry blocking assay: biotinylated CD155 binding to Jurkat TIGIT cells (MFI), streptavidin detection
Method: as §1

[3] = molecular target: T1, TIGIT (on TIGIT-transfected Jurkat …); assay: flow cytometry, antibody binding to Jurkat TIGIT cells (MFI), fluorescent anti-human IgG Fc secondary
Method: (§2) 10⁵ cells (RKO, Jurkat TIGIT, and Jurkat LAG-3 for testing antibody binding to PD-L1, TIGIT, and LAG-3, respectively) per well were distributed in 0.1 ml medium to 96-well V-bottom plates. Supernatants were discarded after spinning down cells at 300 g, 5 min at room temperature. Cells were resuspended in […] of a serial dilution of antibodies and incubated for 1 h at room temperature. After incubation, cells were washed by adding 0.15 ml cell staining buffer (PBS containing 1% FBS and 0.1% NaN3) and centrifugation at 300 g, 5 min at room temperature. Supernatants were discarded and cells were washed one more time with 0.15 ml of staining buffer. Cells were subsequently resuspended in […] of secondary antibody (Alexa Fluor 647-conjugated AffiniPure Goat Anti-Human IgG, Fcγ Fragment Specific. Used at 1:500) and incubated at RT for 30 min. Cells were spun down after 0.15 ml cell staining buffer was added, resuspended in 0.12 ml of cell staining buffer, and analyzed by flow cytometry on a NovoCyte flow cytometer (Agilent).

[4] = molecular target: T2, PD-L1 (endogenous, on RKO colon cancer cells) (human, UniProt Q9NZQ7 19-290); assay: flow cytometry, antibody binding to PDL1+ RKO cells (MFI)
T2 construct: whole, on cells; also called cell-associated PD-L1; CD274
T2 sequence (Q9NZQ7 19-290): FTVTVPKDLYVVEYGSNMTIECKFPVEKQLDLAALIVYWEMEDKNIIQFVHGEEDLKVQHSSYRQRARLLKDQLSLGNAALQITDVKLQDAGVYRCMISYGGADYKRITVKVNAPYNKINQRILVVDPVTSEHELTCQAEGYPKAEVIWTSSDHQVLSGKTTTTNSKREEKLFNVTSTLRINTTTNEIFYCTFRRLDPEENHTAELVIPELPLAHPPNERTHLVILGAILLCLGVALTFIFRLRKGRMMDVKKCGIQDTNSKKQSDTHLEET
Method: as §2

[5] = molecular target: T3, LAG-3 (on LAG-3-transfected Jurkat cells) (UniProt P18627 23-525, limits assumed); assay: flow cytometry, antibody binding to Jurkat LAG-3 cells (MFI)
T3 construct: whole, on cells; also called Jurkat LAG-3; cell-associated LAG-3
T3 sequence (looked up): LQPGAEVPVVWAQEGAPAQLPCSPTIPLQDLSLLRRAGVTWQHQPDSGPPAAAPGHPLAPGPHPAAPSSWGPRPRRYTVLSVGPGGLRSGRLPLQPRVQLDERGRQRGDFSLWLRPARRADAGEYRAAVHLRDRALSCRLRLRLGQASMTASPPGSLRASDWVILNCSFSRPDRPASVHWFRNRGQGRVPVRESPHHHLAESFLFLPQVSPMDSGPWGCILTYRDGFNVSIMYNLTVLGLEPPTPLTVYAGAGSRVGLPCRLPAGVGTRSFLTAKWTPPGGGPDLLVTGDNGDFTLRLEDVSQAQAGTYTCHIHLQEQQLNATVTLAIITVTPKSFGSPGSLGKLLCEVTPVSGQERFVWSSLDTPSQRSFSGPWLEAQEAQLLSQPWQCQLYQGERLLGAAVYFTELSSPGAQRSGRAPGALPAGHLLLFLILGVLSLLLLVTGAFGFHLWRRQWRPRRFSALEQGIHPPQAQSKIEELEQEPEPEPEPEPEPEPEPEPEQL
Method: as §2

IC50 [1]: ~300 pM | IC50 [2]: 290 pM | EC50 [3]: 310 pM
B1: tiragolumab (antibody, V domains shown)
VH: EVQLQQSGPGLVKPSQTLSLTCAISGDSVSSNSAAWNWIRQSPSRGLEWLGKTYYRFKWYSDYAVSVKGRITINPDTSKNQFSLQLNSVTPEDTAVFYCTRESTTYDLLAGPFDYWGQGTLVTVSS
VL: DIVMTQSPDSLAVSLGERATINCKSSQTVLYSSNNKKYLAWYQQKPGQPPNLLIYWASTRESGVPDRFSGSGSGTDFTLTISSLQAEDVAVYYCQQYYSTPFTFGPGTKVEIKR

IC50 [1]: ~2500 pM | binding result [4]: no binding (tested: 100 nM) | IC50 [2]: 2650 pM | EC50 [3]: 5640 pM
B2: parental anti-TIGIT antibody (antibody, human IgG1, V domains shown)
VH: EVQLVESGGGLVQPGGSLRLSCAASSRTFSRYAMGWFRRAPGKEREFVASISWSGGGLEYAESVKGRFTISRDGSKNTVYLQMNSLAAEDTAVYYCAADPWGSLVNGAVRYEYWGQGTLVTVSS
notes: also called αTIGIT; ABT's parental anti-TIGIT antibody

binding result [5]: no binding (tested: 100 nM) | IC50 [1]: ~300 pM | IC50 [2]: 370 pM | EC50 [3]: 1590 pM
B3: PD-L1/TIGIT BsAb (bispecific antibody, V domains shown)
V domain 1: B2 VH
V domain 2: not shown
notes: also called PD-L1/TIGIT bispecific antibody; TIGIT/PD-L1 bispecific antibody; not shown: linker peptide
